Measurements from US20050004013A1 (Scripps Research, published 2005).
Bridges are numbered along the chain shown (N, C = ends). Where no end group is shown, it is not given here.

How the values were obtained:
[1] = biological target: T1, mouse R-cadherin fused to Red Fluorescent Protein, on stably transfected L-cells (mouse, UniProt P39038 167-913); assay: cell-based or functional assay
T1 sequence (looked up): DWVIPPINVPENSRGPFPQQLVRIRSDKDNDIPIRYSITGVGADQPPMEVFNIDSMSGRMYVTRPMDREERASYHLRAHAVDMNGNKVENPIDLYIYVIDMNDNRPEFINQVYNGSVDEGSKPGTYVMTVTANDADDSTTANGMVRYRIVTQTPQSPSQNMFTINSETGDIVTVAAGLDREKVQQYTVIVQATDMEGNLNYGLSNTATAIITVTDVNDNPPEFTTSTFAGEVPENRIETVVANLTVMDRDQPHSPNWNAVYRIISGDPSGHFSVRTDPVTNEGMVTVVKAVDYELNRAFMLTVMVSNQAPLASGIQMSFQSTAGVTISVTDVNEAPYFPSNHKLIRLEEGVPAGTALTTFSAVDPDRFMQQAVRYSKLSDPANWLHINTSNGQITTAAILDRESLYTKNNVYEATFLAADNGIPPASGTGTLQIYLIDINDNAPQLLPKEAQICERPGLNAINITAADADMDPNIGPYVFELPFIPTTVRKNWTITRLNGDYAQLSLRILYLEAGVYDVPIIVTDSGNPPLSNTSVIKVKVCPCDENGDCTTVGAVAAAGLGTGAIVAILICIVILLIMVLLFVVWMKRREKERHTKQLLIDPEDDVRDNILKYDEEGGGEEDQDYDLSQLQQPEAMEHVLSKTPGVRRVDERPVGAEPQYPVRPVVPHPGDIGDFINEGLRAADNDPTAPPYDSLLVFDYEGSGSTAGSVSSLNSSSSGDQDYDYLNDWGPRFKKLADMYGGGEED

[2] = biological target: T2, mouse N-cadherin fused to Red Fluorescent Protein, on stably transfected L-cells (mouse, UniProt P15116 160-906); assay: cell-based or functional assay
T2 sequence (looked up): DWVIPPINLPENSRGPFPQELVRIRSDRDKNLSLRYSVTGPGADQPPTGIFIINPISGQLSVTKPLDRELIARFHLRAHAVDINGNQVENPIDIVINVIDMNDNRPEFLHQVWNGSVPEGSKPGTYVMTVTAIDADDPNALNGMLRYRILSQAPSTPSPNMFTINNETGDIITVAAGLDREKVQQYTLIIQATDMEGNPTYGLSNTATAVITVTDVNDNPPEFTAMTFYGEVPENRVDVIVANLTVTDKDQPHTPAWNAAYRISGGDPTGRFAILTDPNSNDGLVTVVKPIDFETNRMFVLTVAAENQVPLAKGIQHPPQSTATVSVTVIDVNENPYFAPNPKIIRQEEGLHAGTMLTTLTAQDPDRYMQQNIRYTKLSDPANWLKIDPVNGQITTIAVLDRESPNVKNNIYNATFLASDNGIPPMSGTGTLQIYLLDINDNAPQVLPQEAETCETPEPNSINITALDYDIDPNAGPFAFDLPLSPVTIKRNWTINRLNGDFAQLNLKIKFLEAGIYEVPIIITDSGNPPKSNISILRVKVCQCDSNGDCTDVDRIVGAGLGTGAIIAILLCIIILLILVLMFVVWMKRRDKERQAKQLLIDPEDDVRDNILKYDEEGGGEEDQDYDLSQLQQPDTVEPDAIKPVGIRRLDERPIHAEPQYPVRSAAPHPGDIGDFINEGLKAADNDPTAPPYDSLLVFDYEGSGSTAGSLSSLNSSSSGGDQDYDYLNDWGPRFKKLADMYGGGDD

IDSMSGR (not fully specified) [IDSMSGR (SEQ ID NO: 2)]
IC50 of inhibition of R-cadherin mediated L-cell adhesion (aggregation) [1]: ~900 µM
effectiveness relative to cyclic IDS in the aggregation assay [1]: ~3 fold lower

CINPC (disulfide 1-5; not fully specified) [cyclic CINPC (SEQ ID NO: 9)]
IC50 of inhibition of N-cadherin mediated L-cell aggregation [2]: < 300 µM

CHAVC (disulfide 1-5) [cyclic HAV peptide (CHAVC, SEQ ID NO: 20)]
IC50 of inhibition of N-cadherin mediated L-cell aggregation [2]: 150 to 200 µM
IC50 of inhibition of R-cadherin mediated L-cell aggregation [1]: 150 to 200 µM

CIDSC (disulfide 1-5; not fully specified) [cyclic CIDSC (SEQ ID NO: 8)]
IC50 of inhibition of R-cadherin mediated L-cell aggregation [1]: ~300 µM
